Values quoted from earlier work as cited in PMC12224906.

Target: eIF5B CTD (Homo sapiens) (UniProt O60841)
Sequence of UniProt O60841 (O60841 1076-1220): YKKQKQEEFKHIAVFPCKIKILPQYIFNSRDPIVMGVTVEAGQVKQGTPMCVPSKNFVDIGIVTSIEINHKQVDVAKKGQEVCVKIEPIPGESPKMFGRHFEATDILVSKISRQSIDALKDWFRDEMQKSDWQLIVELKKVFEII

Kd: 500 nM
Substance: eIF5 CTT (from UniProt P55010)
